± gives the standard error. Fewer inactive variants are shown than the library holds.
B1: glmS ribozyme (parent)
chain: AUAAAAGCGCCAGAACUACAGAAAUGUAGUUGACGAGGAGGAGGUUUAUCGAAUUUUCGGCGGAUGCCUCCAAA

How the values were obtained:
Settings in all cases: with glucosamine-6-phosphate
[1] = variants of: B1; assay: self-cleavage kobs at 40 uM GlcN6P; higher = faster cleavage; RNA array
Outline: (§1)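 Using a hybridised Cy3 probe at 37 °C, barcoded ribozyme variants transcribed in situ by E. coli RNA polymerase on sequenced MiSeq chips were monitored across tiles imaged over ~14 h. The flow contained glucosamine-6-phosphate from 40 μM to 10 mM in HEPES/KCl/Mg(OAc)2 buffer. Signals were normalised to baseline and to non-cleaving reference variants before per-tile medians were fit to one- or two-exponential decays to yield kobs. Weighted Michaelis–Menten fits across concentrations gave kcat and KM.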

[2] = variants of: B1; assay: self-cleavage kobs at 640 uM GlcN6P; higher = faster cleavage; RNA array
Outline: as §1

[3] = variants of: B1; assay: self-cleavage kobs at 160 uM GlcN6P; higher = faster cleavage; RNA array
Outline: as §1

[4] = variants of: B1; assay: self-cleavage kobs at 2500 uM GlcN6P; higher = faster cleavage; RNA array
Outline: as §1

[5] = variants of: B1; assay: self-cleavage kobs at 10000 uM GlcN6P; higher = faster cleavage; RNA array
Outline: as §1

| Variant | self-cleavage kobs at 40 uM GlcN6P [1] | self-cleavage kobs at 640 uM GlcN6P [2] | self-cleavage kobs at 160 uM GlcN6P [3] | self-cleavage kobs at 2500 uM GlcN6P [4] | self-cleavage kobs at 10000 uM GlcN6P [5] |
| --- | --- | --- | --- | --- | --- |
| A36C G63A | < 1e-05 s⁻¹ | < 1e-05 s⁻¹ |  |  |  |
| G38A U46G | < 1e-05 s⁻¹ | < 1e-05 s⁻¹ | < 1e-05 s⁻¹ | < 1e-05 s⁻¹ | < 1e-05 s⁻¹ |
| G41A G63A | < 1e-05 s⁻¹ | < 1e-05 s⁻¹ |  |  | < 1e-05 s⁻¹ |
| G43U G59C | < 1e-05 s⁻¹ | < 1e-05 s⁻¹ | < 1e-05 s⁻¹ | < 1e-05 s⁻¹ | < 1e-05 s⁻¹ |
| G43U G59A | < 1e-05 s⁻¹ |  |  | < 1e-05 s⁻¹ | < 1e-05 s⁻¹ |
| G41U A42U C70A | 0.000142 ± 2.3e-05 s⁻¹ |  |  |  | 0.00204 ± 0.00044 s⁻¹ |
| A42G U69A | 0.000758 ± 0.00012 s⁻¹ | 0.00094 ± 0.00029 s⁻¹ | 0.000231 ± 0.00011 s⁻¹ | 0.000947 ± 0.0003 s⁻¹ |  |
| G40U G44U | < 1e-05 s⁻¹ | < 1e-05 s⁻¹ | < 1e-05 s⁻¹ |  |  |
| G37U G41C | < 1e-05 s⁻¹ | < 1e-05 s⁻¹ | < 1e-05 s⁻¹ | < 1e-05 s⁻¹ |  |
| U45A G59U C70G | < 1e-05 s⁻¹ |  |  |  | < 1e-05 s⁻¹ |
| G38C G41U G60C | < 1e-05 s⁻¹ |  |  |  |  |
| A39G G59U | < 1e-05 s⁻¹ |  | < 1e-05 s⁻¹ |  | 5.72e-05 ± 9.8e-06 s⁻¹ |
| G40U C50A G66U | < 1e-05 s⁻¹ | < 1e-05 s⁻¹ |  | < 1e-05 s⁻¹ | < 1e-05 s⁻¹ |
| G38U C70U C71G | 8.76e-05 ± 2.7e-05 s⁻¹ |  |  |  |  |
| G40C C50G | < 1e-05 s⁻¹ |  | < 1e-05 s⁻¹ | < 1e-05 s⁻¹ | < 1e-05 s⁻¹ |
| G38C A39C G40C C50A A53G U65C | < 1e-05 s⁻¹ |  |  |  |  |
| G38U U57G C68A U69A | 6.8e-05 ± 3e-05 s⁻¹ |  |  |  | 5.25e-05 ± 2e-05 s⁻¹ |
| A36C G41A C68A | < 1e-05 s⁻¹ | < 1e-05 s⁻¹ |  | < 1e-05 s⁻¹ | < 1e-05 s⁻¹ |
| G40A U47A A53U | 6.84e-05 ± 2.5e-05 s⁻¹ |  |  | 0.000618 ± 0.00018 s⁻¹ |  |
| G38U C70G | 2.71e-05 ± 1e-05 s⁻¹ | 0.000298 ± 0.00014 s⁻¹ | 0.000289 ± 9.3e-05 s⁻¹ |  |  |
| G37C A48C | < 1e-05 s⁻¹ | < 1e-05 s⁻¹ |  | < 1e-05 s⁻¹ | < 1e-05 s⁻¹ |
| A42G U56G | 0.000474 ± 5.8e-05 s⁻¹ | 0.00411 ± 0.00062 s⁻¹ | 0.00171 ± 0.00035 s⁻¹ | 0.0067 ± 0.0013 s⁻¹ | 0.0334 ± 0.0059 s⁻¹ |

— the supplement of paper PMC7125110
